# Results from the supplement of paper PMC9112550, “Optimization of the antimicrobial peptide Bac7 by deep mutational scanning” (BMC Biology, 2022).
# Tested on: Escherichia coli TOP10
# Test: shrunken log2 fold change of peptide-encoding DNA abundance (4.5 h post-induction vs induction); higher = less antimicrobial activity (less host growth inhibition)
# Conditions: time post-induction: 4.5 h; library: site-saturation at positions 5, 18, 19, 20
# 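Also: peptides expressed intracellularly from a pBAD plasmid library in pooled LB shake-flask culture, induced with 0.3% L-arabinose, DNA abundance read by NGS, three biological replicates, DESeq2 with apeglm shrinkage.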
row,Sequence,shrunken log2 fold change
1,RRIRKRPPRLPRPRPRPYFHPRP,-0.225
2,RRIRVRPPRLPRPRPRPFLQPRP,0.15
3,RRIRTRPPRLPRPRPRPNGAPRP,-0.0908
4,RRIRPRPPRLPRPRPRPQNSPRP,-0.469
5,RRIRFRPPRLPRPRPRPCPEPRP,-0.2
6,RRIRWRPPRLPRPRPRPRIFPRP,0.499
7,RRIRFRPPRLPRPRPRPCFIPRP,-0.564
8,RRIRRRPPRLPRPRPRPEDYPRP,0.252
9,RRIRHRPPRLPRPRPRPFYHPRP,-0.126
10,RRIRDRPPRLPRPRPRPEASPRP,0.447
11,RRIRFRPPRLPRPRPRPLCNPRP,-0.398
12,RRIRCRPPRLPRPRPRPEDCPRP,0.173
13,RRIRSRPPRLPRPRPRPYDKPRP,0.0507
14,RRIRQRPPRLPRPRPRPRPYPRP,-0.357
15,RRIRERPPRLPRPRPRPGNIPRP,-0.989
16,RRIRVRPPRLPRPRPRPKWVPRP,0.0874
17,RRIRWRPPRLPRPRPRPEFGPRP,0.393
18,RRIRFRPPRLPRPRPRPFPSPRP,-0.179
19,RRIRWRPPRLPRPRPRPRDTPRP,0.11
20,RRIRSRPPRLPRPRPRPFHQPRP,-0.418
21,RRIRMRPPRLPRPRPRPNGVPRP,0.194
22,RRIRMRPPRLPRPRPRPAEFPRP,1.15

row,Sequence,shrunken log2 fold change
1,RRIRFRPPRLPRPRPRPLTYPRP,-0.573
2,RRIRVRPPRLPRPRPRPYWYPRP,-0.964
3,RRIRNRPPRLPRPRPRPYSWPRP,-0.814
4,RRIRCRPPRLPRPRPRPCLLPRP,-1.45
5,RRIRRRPPRLPRPRPRPINYPRP,-0.196
6,RRIRDRPPRLPRPRPRPFWIPRP,-0.408
7,RRIRDRPPRLPRPRPRPVRGPRP,1
8,RRIRTRPPRLPRPRPRPWEMPRP,-0.0783
9,RRIRDRPPRLPRPRPRPMVTPRP,0.769
10,RRIRRRPPRLPRPRPRPSDWPRP,-0.302
11,RRIRYRPPRLPRPRPRPGKQPRP,-0.0708
12,RRIRLRPPRLPRPRPRPRCGPRP,0.0294
13,RRIRLRPPRLPRPRPRPCDFPRP,0.092
14,RRIRGRPPRLPRPRPRPYWHPRP,-0.627
15,RRIRWRPPRLPRPRPRPVPMPRP,0.221
16,RRIRKRPPRLPRPRPRPGQIPRP,0.00502
17,RRIRDRPPRLPRPRPRPRFVPRP,0.0484
18,RRIRGRPPRLPRPRPRPPMIPRP,-0.0528
19,RRIRARPPRLPRPRPRPANAPRP,0.301
20,RRIRWRPPRLPRPRPRPRWVPRP,0.454
21,RRIRPRPPRLPRPRPRPMAKPRP,0.646
22,RRIRPRPPRLPRPRPRPRHSPRP,-0.0642

row,Sequence,shrunken log2 fold change
1,RRIRSRPPRLPRPRPRPSSLPRP,-0.255
2,RRIRQRPPRLPRPRPRPWFFPRP,-0.0396
3,RRIRERPPRLPRPRPRPSRYPRP,-0.481
4,RRIRSRPPRLPRPRPRPLEDPRP,0.0492
5,RRIRVRPPRLPRPRPRPDCDPRP,-0.102
6,RRIRIRPPRLPRPRPRPIAAPRP,0.0481
7,RRIRGRPPRLPRPRPRPEKTPRP,-0.0522
8,RRIRLRPPRLPRPRPRPCSHPRP,-0.226
9,RRIRERPPRLPRPRPRPGYEPRP,-0.00204
10,RRIRHRPPRLPRPRPRPYSKPRP,-1.03
11,RRIRFRPPRLPRPRPRPNFCPRP,0.0651
12,RRIRGRPPRLPRPRPRPEGKPRP,0.574
13,RRIRCRPPRLPRPRPRPFKTPRP,-0.478
14,RRIRYRPPRLPRPRPRPPSFPRP,0.0588
15,RRIRMRPPRLPRPRPRPEMNPRP,3.59
16,RRIRLRPPRLPRPRPRPNMRPRP,0.0295
17,RRIRARPPRLPRPRPRPSQDPRP,0.196
18,RRIRERPPRLPRPRPRPPSPPRP,-0.0326
19,RRIRMRPPRLPRPRPRPSQLPRP,-0.0454
20,RRIRNRPPRLPRPRPRPVGEPRP,0.112
21,RRIRYRPPRLPRPRPRPPGQPRP,0.0011
22,RRIRGRPPRLPRPRPRPYCKPRP,0.0688

row,Sequence,shrunken log2 fold change
1,RRIRNRPPRLPRPRPRPDMSPRP,0.000831
2,RRIRRRPPRLPRPRPRPSGKPRP,0.845
3,RRIRRRPPRLPRPRPRPDKFPRP,0.0835
4,RRIRERPPRLPRPRPRPNRYPRP,-0.0565
5,RRIRHRPPRLPRPRPRPNQQPRP,-0.0412
6,RRIRNRPPRLPRPRPRPRQQPRP,0.365
7,RRIRHRPPRLPRPRPRPAGIPRP,-0.282
8,RRIRFRPPRLPRPRPRPELAPRP,0.0952
9,RRIRTRPPRLPRPRPRPATWPRP,0.164
10,RRIRPRPPRLPRPRPRPICQPRP,-0.0543
11,RRIRKRPPRLPRPRPRPRYAPRP,-0.129
12,RRIRQRPPRLPRPRPRPERAPRP,0.53
13,RRIRARPPRLPRPRPRPDNWPRP,0.283
14,RRIRKRPPRLPRPRPRPQRPPRP,0.518
15,RRIRIRPPRLPRPRPRPIPHPRP,-0.297
16,RRIRLRPPRLPRPRPRPTTVPRP,-0.175
17,RRIRLRPPRLPRPRPRPLLFPRP,-0.242
18,RRIRDRPPRLPRPRPRPQWVPRP,-0.0468
19,RRIRWRPPRLPRPRPRPYFHPRP,-0.625
20,RRIRNRPPRLPRPRPRPHPNPRP,0.0207
21,RRIRQRPPRLPRPRPRPPILPRP,-0.13
22,RRIRPRPPRLPRPRPRPHDFPRP,-0.145

row,Sequence,shrunken log2 fold change
1,RRIRPRPPRLPRPRPRPHGPPRP,0.0292
2,RRIRIRPPRLPRPRPRPLVTPRP,-0.105
3,RRIRQRPPRLPRPRPRPLFMPRP,-1.12
4,RRIRDRPPRLPRPRPRPEVNPRP,0.0354
5,RRIRPRPPRLPRPRPRPQKHPRP,0.865
6,RRIRRRPPRLPRPRPRPQECPRP,-0.0184
7,RRIRDRPPRLPRPRPRPSAHPRP,0.127
8,RRIRSRPPRLPRPRPRPIRFPRP,-0.964
9,RRIRARPPRLPRPRPRPYVDPRP,-0.16
10,RRIRQRPPRLPRPRPRPQLPPRP,-0.23
11,RRIRERPPRLPRPRPRPRSFPRP,-0.331
12,RRIRERPPRLPRPRPRPRFMPRP,-0.0944
13,RRIRPRPPRLPRPRPRPLPAPRP,0.864
14,RRIRERPPRLPRPRPRPCSGPRP,-0.434
15,RRIRDRPPRLPRPRPRPGMIPRP,0.133
16,RRIRQRPPRLPRPRPRPNWMPRP,0.0507
17,RRIRERPPRLPRPRPRPKWFPRP,-0.0144
18,RRIRNRPPRLPRPRPRPADMPRP,-0.00154
19,RRIRKRPPRLPRPRPRPPWDPRP,0.68
20,RRIRARPPRLPRPRPRPMHFPRP,0.122
21,RRIRSRPPRLPRPRPRPMNLPRP,0.048
